Reference: article PMC2490753

Biological target: YacG (E. coli) (UniProt P0A8H8)
Experiment: SPR

UniProt P0A8H8, sequence (P0A8H8 whole entry): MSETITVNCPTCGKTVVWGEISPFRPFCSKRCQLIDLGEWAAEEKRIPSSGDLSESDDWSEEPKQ

response above nonspecific control at 1 uM GyrB: 92 RU
Substance: GyrB subunit of E. coli DNA gyrase (from UniProt P0AES6 1-804) (natural protein)
